Assay results reported in IntAct's records for PubMed 20010843.

B1: Tryptophan--tRNA ligase, cytoplasmic (Homo sapiens), P23381 (parent)
chain: MPNSEPASLLELFNSIATQGELVRSLKAGNASKDEIDSAVKMLVSLKMSYKAAAGEDYKADCPPGNPAPTSNHGPDATEAEEDFVDPWTVQTSSAKGIDYDKLIVRFGSSKIDKELINRIERATGQRPHHFLRRGIFFSHRDMNQVLDAYENKKPFYLYTGRGPSSEAMHVGHLIPFIFTKWLQDVFNVPLVIQMTDDEKYLWKDLTLDQAYSYAVENAKDIIACGFDINKTFIFSDLDYMGMSSGFYKNVVKIQKHVTFNQVKGIFGFTDSDCIGKISFPAIQAAPSFSNSFPQIFRDRTDIQCLIPCAIDQDPYFRMTRDVAPRIGYPKPALLHSTFFPALQGAQTKMSASDPNSSIFLTDTAKQIKTKVNKHAFSGGRDTIEEHRQFGGNCDVDVSFMYLTFFLEDDDKLEQIRKDYTSGAMLTGELKKALIEVLQPLIAEHQARRKEVTDEIVKEFMTPRKLSFDFQ
partner: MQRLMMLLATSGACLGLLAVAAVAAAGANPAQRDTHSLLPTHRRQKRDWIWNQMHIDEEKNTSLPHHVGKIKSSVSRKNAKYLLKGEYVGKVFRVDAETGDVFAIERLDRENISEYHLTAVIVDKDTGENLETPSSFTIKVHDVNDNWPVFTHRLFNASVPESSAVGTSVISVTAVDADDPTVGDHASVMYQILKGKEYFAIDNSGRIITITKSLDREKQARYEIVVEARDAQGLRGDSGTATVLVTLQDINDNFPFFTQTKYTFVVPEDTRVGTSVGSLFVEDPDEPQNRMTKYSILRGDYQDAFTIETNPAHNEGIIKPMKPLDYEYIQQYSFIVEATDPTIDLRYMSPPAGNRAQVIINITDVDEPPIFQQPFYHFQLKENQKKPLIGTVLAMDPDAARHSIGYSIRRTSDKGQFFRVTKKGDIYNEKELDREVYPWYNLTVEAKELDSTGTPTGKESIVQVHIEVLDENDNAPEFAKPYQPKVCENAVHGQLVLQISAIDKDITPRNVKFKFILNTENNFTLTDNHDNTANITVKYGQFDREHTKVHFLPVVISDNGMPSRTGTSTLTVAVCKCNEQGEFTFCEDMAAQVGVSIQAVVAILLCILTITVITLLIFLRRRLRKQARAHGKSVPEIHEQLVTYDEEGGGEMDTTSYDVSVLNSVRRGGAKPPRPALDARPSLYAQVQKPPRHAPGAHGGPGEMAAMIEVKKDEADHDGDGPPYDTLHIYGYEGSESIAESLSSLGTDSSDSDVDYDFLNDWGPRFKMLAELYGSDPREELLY
B2: Cadherin-5 (Homo sapiens), P33151 (parent)
chain: B1 partner
partner: B1 chain

Variants of: B1
Details: with cadh5_human CDH5, P33151

Effect of a mutation on the interaction, disrupting interaction:
MPNSEPASLLELFNSIATQGELVRSLKAGNASKDEIDSAVKMLVSLKMSYKAAAGEDYKADCPPGNPAPTSNHGPDATEAEEDFVDPWTVQTSSAKGIDYDKLIVRFGSSKIDKELINRIERATGQRPHHFLRRGIFFSHRDMNQVLDAYENKKPFYLYTGRGPSSEAMHVGHLIPFIFTKWLQDVFNVPLVIQMTDDEKYLWKDLTLDQAYSYAVENAKDIIACGFDINKTFIFSDLDYMGMSSGFYKNVVKIQKHVTFNQVKGIFGFTDSDCIGKISFPAIQAAPSFSNSFPQIFRDRTDIQCLIPCWIDQDPYFRMTRDVAPRIGYPKPALLHSTFFPALQGAQTKMSASDPNSSIFLTDTAKQIKTKVNKHAFSGGRDTIEEHRQFGGNCDVDVSFMYLTFFLEDDDKLEQIRKDYTSGAMLTGELKKALIEVLQPLIAEHQARRKEVTDEIVKEFMTPRKLSFDFQ [A310W]
MPNSEPASLLELFNSIATQGELVRSLKAGNASKDEIDSAVKMLVSLKMSYKAAAGEDYKADCPPGNPAPTSNHGPDATEAEEDFVDPWTVQTSSAKGIDYDKLIVRFGSSKIDKELINRIERATGQRPHHFLRRGIFFSHRDMNQVLDAYENKKPFYLYTGRGPSSEAMHVMHLIPFIFTKWLQDVFNVPLVIQMTDDEKYLWKDLTLDQAYSYAVENAKDIIACGFDINKTFIFSDLDYMGMSSGFYKNVVKIQKHVTFNQVKGIFGFTDSDCIGKISFPAIQAAPSFSNSFPQIFRDRTDIQCLIPCAIDQDPYFRMTRDVAPRIGYPKPALLHSTFFPALQGAQTKMSASDPNSSIFLTDTAKQIKTKVNKHAFSGGRDTIEEHRQFGGNCDVDVSFMYLTFFLEDDDKLEQIRKDYTSGAMLTGELKKALIEVLQPLIAEHQARRKEVTDEIVKEFMTPRKLSFDFQ [G172M]
MPNSEPASLLELFNSIATQGELVRSLKAGNASKDEIDSAVKMLVSLKMSYKAAAGEDYKADCPPGNPAPTSNHGPDATEAEEDFVDPWTVQTSSAKGIDYDKLIVRFGSSKIDKELINRIERATGQRPHHFLRRGIFFSHRDMNQVLDAYENKKPFYLYTWRGPSSEAMHVGHLIPFIFTKWLQDVFNVPLVIQMTDDEKYLWKDLTLDQAYSYAVENAKDIIACGFDINKTFIFSDLDYMGMSSGFYKNVVKIQKHVTFNQVKGIFGFTDSDCIGKISFPAIQAAPSFSNSFPQIFRDRTDIQCLIPCAIDQDPYFRMTRDVAPRIGYPKPALLHSTFFPALQGAQTKMSASDPNSSIFLTDTAKQIKTKVNKHAFSGGRDTIEEHRQFGGNCDVDVSFMYLTFFLEDDDKLEQIRKDYTSGAMLTGELKKALIEVLQPLIAEHQARRKEVTDEIVKEFMTPRKLSFDFQ [G161W]
MPNSEPASLLELFNSIATQGELVRSLKAGNASKDEIDSAVKMLVSLKMSYKAAAGEDYKADCPPGNPAPTSNHGPDATEAEEDFVDPWTVQTSSAKGIDYDKLIVRFGSSKIDKELINRIERATGQRPHHFLRRGIFFSHRDMNQVLDAYENKKPFYLATGRGPSSEAMHVGHLIPFIFTKWLQDVFNVPLVIAMTDDEKYLWKDLTLDQAYSYAVENAKDIIACGFDINKTFIFSDLDYMGMSSGFYKNVVKIQKHVTFNQVKGIFGFTDSDCIGKISFPAIQAAPSFSNSFPQIFRDRTDIQCLIPCAIDQDPYFRMTRDVAPRIGYPKPALLHSTFFPALQGAQTKMSASDPNSSIFLTDTAKQIKTKVNKHAFSGGRDTIEEHRQFGGNCDVDVSFMYLTFFLEDDDKLEQIRKDYTSGAMLTGELKKALIEVLQPLIAEHQARRKEVTDEIVKEFMTPRKLSFDFQ [Y159A;Q194A]

Variants of: B2
Details: with sywc_human WARS1, P23381

Effect of a mutation on the interaction, disrupting interaction:
W51A
W49A;W51A
W49A
